The results in this text go back to the nanobody polyreactivity screen of Harvey et al. (2022).

This data set can be described thus: yeast display, Sf9 membrane polyspecificity reagent, FACS + sequencing; frameworks hold sequencing errors. In a few lines: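 Galactose induction of a Saccharomyces cerevisiae BJ5465 synthetic nanobody display library ran 36–48 hours. The cells were then stained for 1 hour at 4 °C with 10% biotinylated, detergent-solubilized Sf9 membrane reagent, pulled down on streptavidin microbeads and FACS-sorted into low and high (top ~1%) gates on expression and reagent-binding fluorescence. Labels for polyreactivity follow the gate of origin.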
Turning to “QVQLVESGGGLVQAGGSLRLSCAASGRIFLPYAMGWYRHAPGKERELVAAISRTGDRTYYADSVKGRFTISRDNAKNTVYLHMNSLKPEDTAVYYCNTSLPPTVIRYHLRYPRYDHWGQGTQVTVSS”, the “polyreactivity (PSR sort gate)” value is “low polyreactivity”.

With “QVQLVESGGGLVQAGGSLRLSCAASGSIFYGNAMGWYRQAPGKERELVASITYSGGTTNYADSVKGRFTISRDNAKNTVYLQMNCLKPEDTAVYYCNADIYPDRYGSTNYDFNYWGQGTQVTVSS”, the “polyreactivity (PSR sort gate)” value is on record as “low polyreactivity”.

Take “QVQLVESGGGLVQAGGSLRLSCAASGRIFYGKAMGWYRQAPGKERELVAGITTSGGGTYYADSVKGRFTISRDNAKNTVYLKMNSLKPEDTAVYYCAAKYRRYRDIQDGGYWGQGTQVTVSS”: the “polyreactivity (PSR sort gate)” value is “low polyreactivity”.

As to “QVQLVESGGGLVQAGGSLRLSCAASGRTFYYYARGWYRQAPGKERELVAAINTRGVSTYYEDSVKGRFTISRDNAKNTVYLQMNSLKPEDTAVYYCNKGFSYGRDYWGQGTQVTVSS”, the “polyreactivity (PSR sort gate)” value is recorded as “high polyreactivity”.

Consider “QVQLLETGGGLVQAGASLRLSCAASGSTFEDNAMGWYRQAPGKERELVAAITSGGNTYYADSVKGRFTIARDNAKNTVYLPMNSLKPEDTAVYYCNAVPFYYVFDYWGQGTQVTVSS”, for which the “polyreactivity (PSR sort gate)” value is given as “low polyreactivity”.

In the case of “QVQLVESGGGLVQAGGSLRLSCAASGRIFDYYAMGWYRQAPGKERELVAAITSSTGSTYYADSVKGRFTISRDNAKNTVYLQMNSLKPEDTAVYYCAAERTYLDRGFDYWGQGTQVTVSS”, the “polyreactivity (PSR sort gate)” value was “low polyreactivity”.

With “QVQLLESGGGLVQPGGSLRLSCAASGSTFIGYAMGWYRQAPGKETELVAAISWSGGRTYYADSVKGRFTISRDNAKNTVYLQMNSLKAEDTAVYYCNTVPYRISVQFNYWGQGTQVTVSS”, the “polyreactivity (PSR sort gate)” value is on record as “high polyreactivity”.

With “QVQLVESGGGLVQAGGSLRLSCAASGRTFVYYAMGWYRQAPGKERELVASISSNGGTYYADSVKGRFTISRDNAKNTVYLQMNSLKPEDTAVYYCNAKRVARYQYGASYNYWGQGTQVTVSS”, the “polyreactivity (PSR sort gate)” value is given as “high polyreactivity”.

Regarding “QVQLLESGGGLVQAGGSLRLSCAASGFIFAKNAMGWYRKAPGKERELVAAISASGGRTYYADSVKGRFTISRDNAKNTVYLQMNSLKPEDTAVYYCAARRDGRSGSYNYWGQGTQVTVSS”, the “polyreactivity (PSR sort gate)” value is “high polyreactivity”.

With “QVQHVESGGGLVQAGGSLRLSCAASGRIFGPYAMGWYRQAPGKEREFVAVITYSSGSTYYADSVKWRFTISRDNAKNTVYLQMNSLKPEDTAVYYCAARLIRSYYYGRYDYWGQGTQVTVSS”, the “polyreactivity (PSR sort gate)” value is reported as “high polyreactivity”.

Regarding “QVQLVESGGGLVQAGGSLRLSCAASGNIFPPYAMGWYRQAPGKERELVAAITRSGASTYYADSVKGRFTISRDNAKNTVYLQMNSLKPEDTAVYYCAVGVPGGYWKYYYWGQGTQVTVSS”, the “polyreactivity (PSR sort gate)” value is recorded as “high polyreactivity”.

Take “QVQLVEAGGGLVQAGGSLRLSCAASGSTFRWNAMGWYRQAPGKERELVAAITRSGGSTYYADSVKGRFTISRDNAKNTFYLQMNSLKPEDTAVYYCAAGYFTARRIRYDYWGQGTQVTVSS”: the “polyreactivity (PSR sort gate)” value is reported as “high polyreactivity”.

“QVQLVESGGGLVQAGGSLRLSCAASGRNFLSYMGWYRQAPGKERELVAISRSGTSTYYADSVKGRFTISRDNAKNTVYLQMNSLKPEDTAVYYCAAEVLRDGWWGYYYWGQGTQVTVSS”: the “polyreactivity (PSR sort gate)” value is given as “high polyreactivity”.

“QVQIVESGGGLVQAGGSLRLSCAASGGTFYVNDMGWYRQAPGKERELVATITYSGTSTYYADSVKGRFTISRDNAKNTVYLHMNSLKPEDTAVYYCATDVLLYFEPVNLEYWGQGTQVTVSS”: the “polyreactivity (PSR sort gate)” value is given as “low polyreactivity”.

For the sequence “QVQLVESGGGLVQAGGSLRLSCAASGLILSAYAMGWYRQAPGKERELVAAISGSGGRTYYADSVKGRFTISRDNAKNTVYLQMNSLKPEDTAVYYCAAPYTYVGSYTYNYWGQGTQVTVSS”, the “polyreactivity (PSR sort gate)” value is recorded as “high polyreactivity”.

Regarding “QVQLVESGGGLVQAGGSLRLSCAASGFTFGSNAMGWYRQAPGKERELVAAISWSGGRTYYADSVKGRFTISRDNAKNTVYLQMNSLKPEDTAVYYCNKQYVKPWYRGYYYWGQGTQVTVSS”, the “polyreactivity (PSR sort gate)” value is on record as “high polyreactivity”.

Take “QVQHVESGGGLVQAGGSLRLSCAASGITFYVNDMGWSRQAPGKEREFVAAISYRGGSPYYADSVKGRFTFSRDNAKNTVYLKMNSLKPEDTAVYYCAADYNYWSPHRYDYWGQGTQVTVSS”: the “polyreactivity (PSR sort gate)” value is on record as “low polyreactivity”.

Regarding “QVQLQESGGGLVQAGGDLRLSCAASGNIFLDYIMGWYRQAPGKEREFVAGIDRGANTNYADSVKGRFTISRDNAKNTLYLQMNSLKPEDTAVYYCAVHTAIVPDFIYWGQGTEVTVSS”, the “polyreactivity (PSR sort gate)” value is recorded as “low polyreactivity”.

In the case of “QVQLVESGGGLVQAGGSLRLSCAASGRTFHYYAMGWYRQAPGKERELVAAITRGGNTYYADSVKGRFTISRDNAKNTVYLQMNSLKPEDTAVYYCAKTAAVNGGYDYWGQGTQVTVSS”, the “polyreactivity (PSR sort gate)” value is “high polyreactivity”.

“QVQLVESGGGLVQAGGSLRLSCAASGSTFGTYAMGWYRQAPGKERELVAAITSGGSTDYADSVKGRFTISRDNAKNTVYLQMNSLKPEDTAVYYCNATWELLSYYYLFWGYDYWGQGTQVTVSS”: the “polyreactivity (PSR sort gate)” value is “low polyreactivity”.

With “QVQLVESGGGLVQAGGSLRLSCAASGSIFRSYVMGWSRQAPGKERELVAAISRRGVRTFYADSVKGRFTISRDNAKNTVYLQMNSLKPEDTAVYYCAAQPYKGTGYDYWGQGTQVTVSS”, the “polyreactivity (PSR sort gate)” value is “high polyreactivity”.

Take “QVQLVESGGGLVQAGGSLRLSCAASGRILLSYAMGWYRQAPGKERELVAAISRSGVSTYYADSVKGRFTISRDNAKNTVYLQMNSLKPEDTAVYYCAAVRSSPGKSWDYNYWGQGTQVTVSS”: the “polyreactivity (PSR sort gate)” value is “high polyreactivity”.

For “QVQLVESGGGLVQAGGSLRLSCAASGRIFSSYAMGWYRQAPGKERELVARISYSGGSTYYADSVKGRFTISRDNAKNTVYLQMNSLKPEDTAVYYCNARYYGYGAGYRPYDYWGQGTQVTVSS”, the “polyreactivity (PSR sort gate)” value is “high polyreactivity”.

As for “QVQLVESGGGLVQAGGSLRLSCAASGRIFGGYAMGWYRQAPGKERELVAAISARGGSTYYADSVKGRFTISRDNAKNTVYLQMNSLKPEDTAVYYCAAAEASSRGYYDYDYWGQGTQVTVSS”, the “polyreactivity (PSR sort gate)” value is “low polyreactivity”.

Take “QVQLVESGRGLVQAGGSLRLSCAASGRIFYYAMGWYRQAPGKERELVAAITRSGGRTYYADSVKGRFTISRDNEKNTVYLQMNSLKPEDTAVYDCAADYGAQLWGYYPTFDYWGQGTQVTVSS”: the “polyreactivity (PSR sort gate)” value was “high polyreactivity”.

For “QVQLVESGGGLVQAGGSLRLSCAASGSTLDVYDMGWYRKAPGKEREFVATISFSVGSTDYADSVKGRFTISRDNAKNTVYLQMNSLKPEDTAVYYCAADVSEWSNQYFDSYLRMDYWGQGTQVTVSS”, the “polyreactivity (PSR sort gate)” value was “low polyreactivity”.

Take “QVQLQESGGGLVQAGGSLRLRCAASRNISGSSDLGWYHQAPGKEREFVASITSGGTTYYADSVKGRFTISRDNAKNTVYLQMNSLKPEDTAVYYCAAESRYPFIYEYWGQGTQVTVSS”: the “polyreactivity (PSR sort gate)” value is given as “low polyreactivity”.

Take “QVQLVESGAGLVQAGGSLRLSCAASGSIFDVNAMGWYRQAPGKERELVAAISQRGTRTYYADSVKGRFTISRDNAKNTVYLQMNRLKPEDTAVYYFNRGGWRKYDSWGQGTQVTVSS”: the “polyreactivity (PSR sort gate)” value is recorded as “high polyreactivity”.

On to “QVQQVESWGGLLQAGGSLRLSCAASGSIFTLYAMGWYREAPGKERELVADITWSGGSTYYADSVKGRFTISRDNAKNTVYLEMNSLKPEDTAVYYCAIDYLAGGPWEGHVEREYDYWGQGTQVTVSS”, for which the “polyreactivity (PSR sort gate)” value is “low polyreactivity”.

With “QVQLVESGGGLVQAGGSLRLSCAGSGFTFQYYAMGWYRQAPGKERELVAAMSWGGGSTYYADSVKGRFTISRDNAKKTVYLQMNSLKPEDTAVYYCNAYDYLSAGDDYWGQGTQVTVSS”, the “polyreactivity (PSR sort gate)” value is listed as “low polyreactivity”.

On to “QVQLVESGGGLVQAGGSLRLSCAASGSTFARYVMGWYRQAPGKDRELVAAIRSTGGRTYYADSVKGRFTISRDNAKNTVYLQMNSLKPEDTAVYYCAAAFGQYSRKRFDYWGQGTQVTVSS”, for which the “polyreactivity (PSR sort gate)” value was “high polyreactivity”.

“QVQLVESGGGLVQAGGSLRLSCAASGSIFKFYTMGWYRQAPGKERELVAAISWSGGRTYYADSVKGRFTISRDNAKNTVYLQMNSLKPEDTAVYYCAVPRVGLHGIGSDYWGQGTQVTVSS”: the “polyreactivity (PSR sort gate)” value is “high polyreactivity”.

Consider “QVQLVESGGGLVQAGCSLRLSCAASGRTIAYNAMGWYRQAPGKERELVAAISWSGGSTYYADSVKGRFTISRDNAKNTVYLQMNSMKPEDSAVYYCAKRFGQYRYPYDYWGQGNQVTVSS”, for which the “polyreactivity (PSR sort gate)” value is “high polyreactivity”.

As to “QVQLVESVGSLVQAGVSLRLSCAASGFILYANAMGWYRQAPGKERELGAAISRGTSTYYADSVKGRFTISRDNAKNTVYLQMTSLKPEDTAVYYCATSSYRPWGGYYWGQGTQVTVSS”, the “polyreactivity (PSR sort gate)” value is on record as “high polyreactivity”.

As for “QVQQLESAGGLVQAGGSLRLSCAASGTITVLYKMGWFRQAPGKEREFVASINYGTSTYYADSVKGRFSVSPDSAKHTVYLQMNSLNPEDTAVYYCAAAYRWQDVYRYWGLGTQVTVSS”, the “polyreactivity (PSR sort gate)” value is on record as “low polyreactivity”.

For the sequence “QVQLVESGGGLVQAGGSLRLSCAASGRIFRVNTMGWSRQAPGKERELVAAIRSSGTRPYYADSVKGRFTISRDHAKNTVYLQMNSLIPEDTAVYYCAAEHYWWYVFPSLWGEDDYWGQGTQVTVSS”, the “polyreactivity (PSR sort gate)” value is given as “high polyreactivity”.

For “QVQLVESGGGLVQAGGSLRLSCAASGSIFGGNAMGWYRPAPGKERELVAGISTSGGSTYYADSVKGRFTISRDNAKNTVYLQMNSLKPEDTAVYYCARGLGTYPQYWWFGTPGLDYWGQGTQVTVSS”, the “polyreactivity (PSR sort gate)” value is reported as “low polyreactivity”.

For “QVQLVESGGGLVQAGGSLRLSCAASGFTFRYYAMGWYRQAPGKERELVAAIRRGGTTNYADSVKGRFTISRDNAKNTVYLQMKSLKPEDTAVYYCNAGRGYSVWASIYNSRPFDYWGQGTQVTVSS”, the “polyreactivity (PSR sort gate)” value is “high polyreactivity”.

As to “QVQHVESGGGLVQAGGSLRLSCAASGRTVYGYTMGWDRQAPGKERELVAAISYSGDSTYYADSVKGRFTISRDTAKNTVYFPMNSLKPEYTAVYYCAVRRYARFNYHYWGQGPQVTVSS”, the “polyreactivity (PSR sort gate)” value was “high polyreactivity”.

As for “QVQLVESGGGLVQAGGSLRLSCAASGSIFSGNAMGWYRQAPGKERELVAAISSNGGRTYYADSVKGRFTISRDNAKNTVYLQMNSLKPEDTAVYYCAADSGKRRYGYYYWGQGTQVTVSS”, the “polyreactivity (PSR sort gate)” value is reported as “high polyreactivity”.
